Like-named read-outs stand apart in the source and are kept apart here. Some results are limits rather than exact numbers.

Assay in all cases: SPR
Experiment [1] has as its target HLA-B*08:01.N80I.R82L.G83R/FLR (human | not stated | EBV).
The target in experiment [2] is HLA-B*08:01.R82L/FLR (human | not stated | EBV).
The target in experiment [3] is HLA-B*08:01.N80I.R82L.G83R/FLR (human | not stated | EBV). This is another data set of the same source.

What is called Kd is the equilibrium constant for the complex coming apart. A higher Kd goes with lower affinity. Turning to “Soluble KIR3DL1*001 (from UniProt P43629 22-340) (receptor)”, the Kd was 40.1 µM in experiment [1], above 300 µM in experiment [2] and 41.9 µM in experiment [3].

These data come from PMC4282956.
